Key:
Test in all cases: SPOT array
Abp1, P15891 = target: T1, Abp1, P15891; conditions: median of control spots 935
T1 sequence (P15891 535-592, looked up): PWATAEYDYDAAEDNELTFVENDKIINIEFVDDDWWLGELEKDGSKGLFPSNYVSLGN

Bbc1, P47068 = target: T2, Bbc1, P47068; conditions: median of control spots 796
T2 sequence (P47068 1-78, looked up): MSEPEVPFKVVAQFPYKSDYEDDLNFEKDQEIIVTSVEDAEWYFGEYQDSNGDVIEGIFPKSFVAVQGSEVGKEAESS

Bem1-1, P29366 = conditions: median of control spots 4282
Bem1-2, P29366 = conditions: median of control spots 4347
Boi1, P38041 = target: T3, Boi1, P38041; conditions: median of control spots 1162
T3 sequence (P38041 1-86, looked up): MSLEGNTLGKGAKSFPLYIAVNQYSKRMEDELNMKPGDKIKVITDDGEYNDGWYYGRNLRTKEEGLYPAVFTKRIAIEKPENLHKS

Boi2, P39969 = target: T4, Boi2, P39969; conditions: median of control spots 1161
T4 sequence (P39969 32-116, looked up): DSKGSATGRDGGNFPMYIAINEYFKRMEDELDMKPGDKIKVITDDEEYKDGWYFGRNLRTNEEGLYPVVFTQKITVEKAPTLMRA

Bud14, P27637 = target: T5, Bud14, P27637; conditions: median of control spots 956
T5 sequence (P27637 247-328, looked up): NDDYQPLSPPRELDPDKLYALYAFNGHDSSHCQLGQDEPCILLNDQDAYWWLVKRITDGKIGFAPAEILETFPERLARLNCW

Bzz1-1, P38822 = target: T6, Bzz1-1, P38822; conditions: median of control spots 4446
T6 sequence (P38822 478-572, looked up): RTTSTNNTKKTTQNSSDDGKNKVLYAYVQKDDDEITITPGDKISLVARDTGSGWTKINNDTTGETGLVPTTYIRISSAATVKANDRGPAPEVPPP

Bzz1-2, P38822 = target: T7, Bzz1-2, P38822; conditions: median of control spots 4538
T7 sequence (P38822 568-633, looked up): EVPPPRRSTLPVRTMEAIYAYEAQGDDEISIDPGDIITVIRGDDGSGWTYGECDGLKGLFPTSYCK

Cdc25, P04821 = target: T8, Cdc25, P04821; conditions: median of control spots 969
T8 sequence (P04821 50-136, looked up): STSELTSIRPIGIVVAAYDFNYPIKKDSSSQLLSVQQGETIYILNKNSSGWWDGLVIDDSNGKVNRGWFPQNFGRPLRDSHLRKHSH

Cyk3, Q07533 = target: T9, Cyk3, Q07533; conditions: median of control spots 1451
T9 sequence (Q07533 1-83, looked up): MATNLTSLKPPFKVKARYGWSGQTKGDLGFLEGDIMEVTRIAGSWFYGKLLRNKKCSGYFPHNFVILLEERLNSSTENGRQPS

Fus1, P11710 = target: T10, Fus1, P11710; conditions: median of control spots 1200
T10 sequence (P11710 432-512, looked up): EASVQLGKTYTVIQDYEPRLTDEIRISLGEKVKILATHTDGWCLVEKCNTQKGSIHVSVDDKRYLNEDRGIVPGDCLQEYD

GST = conditions: median of control spots 978
Hof1, Q05080 = target: T11, Hof1, Q05080; conditions: median of control spots 4086
T11 sequence (Q05080 590-669, looked up): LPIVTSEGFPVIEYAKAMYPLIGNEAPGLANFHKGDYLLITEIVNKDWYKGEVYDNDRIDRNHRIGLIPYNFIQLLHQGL

Hse1, P38753 = target: T12, Hse1, P38753; conditions: median of control spots 1727
T12 sequence (P38753 208-285, looked up): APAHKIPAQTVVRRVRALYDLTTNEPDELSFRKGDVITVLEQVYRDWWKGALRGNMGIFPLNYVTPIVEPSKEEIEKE

Lsb1, P53281 = target: T13, Lsb1, P53281; conditions: median of control spots 388
T13 sequence (P53281 45-122, looked up): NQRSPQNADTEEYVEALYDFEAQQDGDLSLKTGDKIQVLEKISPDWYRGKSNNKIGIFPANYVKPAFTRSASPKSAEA

Lsb3, P43603 = target: T14, Lsb3, P43603; conditions: median of control spots 406
T14 sequence (P43603 385-451, looked up): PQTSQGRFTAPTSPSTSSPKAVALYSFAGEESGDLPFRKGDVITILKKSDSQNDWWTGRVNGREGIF

Lsb4, P32793 = target: T15, Lsb4, P32793; conditions: median of control spots 397
T15 sequence (P32793 402-468, looked up): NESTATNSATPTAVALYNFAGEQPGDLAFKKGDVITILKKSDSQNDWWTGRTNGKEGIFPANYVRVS

Myo3, P36006 = conditions: median of control spots 468
Myo5, Q04439 = target: T16, Myo5, Q04439; conditions: median of control spots 471
T16 sequence (Q04439 1072-1160, looked up): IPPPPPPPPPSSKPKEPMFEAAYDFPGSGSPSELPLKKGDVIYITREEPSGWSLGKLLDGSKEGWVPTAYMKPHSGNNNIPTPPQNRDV

Nbp2, Q12163 = target: T17, Nbp2, Q12163; conditions: median of control spots 357
T17 sequence (Q12163 103-180, looked up): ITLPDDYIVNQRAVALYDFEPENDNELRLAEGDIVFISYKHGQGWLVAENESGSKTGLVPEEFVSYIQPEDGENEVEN

Pex13, P80667 = target: T18, Pex13, P80667; conditions: median of control spots 1341
T18 sequence (P80667 295-386, looked up): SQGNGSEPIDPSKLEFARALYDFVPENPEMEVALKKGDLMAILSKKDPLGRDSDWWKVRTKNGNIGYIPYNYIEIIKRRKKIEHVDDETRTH

Pin3, Q06449 = target: T19, Pin3, Q06449; conditions: median of control spots 2171
T19 sequence (Q06449 53-122, looked up): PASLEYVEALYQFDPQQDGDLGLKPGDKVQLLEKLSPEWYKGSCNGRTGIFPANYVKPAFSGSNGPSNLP

Rvs167, P39743 = conditions: median of control spots 2707
Sho1, P40073 = conditions: median of control spots 1148
Sla1-2, P32790 = target: T20, Sla1-2, P32790; conditions: median of control spots 712
T20 sequence (P32790 60-140, looked up): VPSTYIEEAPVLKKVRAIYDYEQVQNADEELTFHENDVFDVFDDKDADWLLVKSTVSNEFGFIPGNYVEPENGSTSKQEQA

Sla1-3, P32790 = target: T21, Sla1-3, P32790; conditions: median of control spots 5475
T21 sequence (P32790 344-424, looked up): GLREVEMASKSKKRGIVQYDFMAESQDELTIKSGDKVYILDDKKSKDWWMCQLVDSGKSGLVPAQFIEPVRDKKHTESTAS

Sequence of Sho1, P40073 (P40073 287-367): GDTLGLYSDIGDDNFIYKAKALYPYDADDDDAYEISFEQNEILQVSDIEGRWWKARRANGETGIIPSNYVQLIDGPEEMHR
Sequence of Rvs167, P39743 (P39743 419-482): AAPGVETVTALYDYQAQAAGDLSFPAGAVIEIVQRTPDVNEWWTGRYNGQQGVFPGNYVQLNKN
Sequence of Bem1-1, P29366 (P29366 55-141): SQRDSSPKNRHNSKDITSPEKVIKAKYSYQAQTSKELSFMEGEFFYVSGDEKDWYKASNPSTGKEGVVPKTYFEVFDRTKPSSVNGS
Sequence of Bem1-2, P29366 (P29366 139-227): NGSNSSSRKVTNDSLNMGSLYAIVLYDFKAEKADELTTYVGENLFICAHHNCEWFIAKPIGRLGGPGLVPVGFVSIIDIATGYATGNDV

ISNFVPPNLPMRRFK gave an SPOT intensity (Abp1, P15891) of 129, an SPOT intensity (Bbc1, P47068) of 199 and an SPOT intensity (Bem1-1, P29366) of 1. For the same binder, the SPOT intensity (Bem1-2, P29366) was 7, the SPOT intensity (Boi1, P38041) was 0 and the SPOT intensity (Boi2, P39969) was 0. For the same binder, the SPOT intensity (Bud14, P27637) was 8, the SPOT intensity (Bzz1-1, P38822) was 1 and the SPOT intensity (Bzz1-2, P38822) was 19. The SPOT intensity (Cdc25, P04821) was 0, the SPOT intensity (Cyk3, Q07533) was 0 and the SPOT intensity (Fus1, P11710) was 0. It also gave an SPOT intensity (GST) of 1, an SPOT intensity (Hof1, Q05080) of 5 and an SPOT intensity (Hse1, P38753) of 72. The SPOT intensity (Lsb1, P53281) was 63, the SPOT intensity (Lsb3, P43603) was 588 and the SPOT intensity (Lsb4, P32793) was 452. The SPOT intensity (Myo3, P36006) was 59, the SPOT intensity (Myo5, Q04439) was 37 and the SPOT intensity (Nbp2, Q12163) was 1. For the same binder, the SPOT intensity (Pex13, P80667) was 671, the SPOT intensity (Pin3, Q06449) was 217 and the SPOT intensity (Rvs167, P39743) was 2140. It also gave an SPOT intensity (Sho1, P40073) of 65, an SPOT intensity (Sla1-2, P32790) of 39 and an SPOT intensity (Sla1-3, P32790) of 3.

For EEEEEHPPLPARRKS, the SPOT intensity (Abp1, P15891) was 0, the SPOT intensity (Bbc1, P47068) was 9 and the SPOT intensity (Bem1-1, P29366) was 0. For the same binder, the SPOT intensity (Bem1-2, P29366) was 3, the SPOT intensity (Boi1, P38041) was 0 and the SPOT intensity (Boi2, P39969) was 0. For the same binder, the SPOT intensity (Bud14, P27637) was 0, the SPOT intensity (Bzz1-1, P38822) was 4 and the SPOT intensity (Bzz1-2, P38822) was 3. For the same binder, the SPOT intensity (Cdc25, P04821) was 0, the SPOT intensity (Cyk3, Q07533) was 0 and the SPOT intensity (Fus1, P11710) was 0. For the same binder, the SPOT intensity (GST) was 0, the SPOT intensity (Hof1, Q05080) was 0 and the SPOT intensity (Hse1, P38753) was 0. The SPOT intensity (Lsb1, P53281) was 32, the SPOT intensity (Lsb3, P43603) was 683 and the SPOT intensity (Lsb4, P32793) was 590. It also gave an SPOT intensity (Myo3, P36006) of 0, an SPOT intensity (Myo5, Q04439) of 0 and an SPOT intensity (Nbp2, Q12163) of 1. The SPOT intensity (Pex13, P80667) was 155, the SPOT intensity (Pin3, Q06449) was 0 and the SPOT intensity (Rvs167, P39743) was 222. It also gave an SPOT intensity (Sho1, P40073) of 0, an SPOT intensity (Sla1-2, P32790) of 0 and an SPOT intensity (Sla1-3, P32790) of 1.

Work on TTNRGPPPLPPRANV yielded an SPOT intensity (Abp1, P15891) of 48, an SPOT intensity (Bbc1, P47068) of 33 and an SPOT intensity (Bem1-1, P29366) of 0. The SPOT intensity (Bem1-2, P29366) was 11, the SPOT intensity (Boi1, P38041) was 0 and the SPOT intensity (Boi2, P39969) was 0. For the same binder, the SPOT intensity (Bud14, P27637) was 1, the SPOT intensity (Bzz1-1, P38822) was 0 and the SPOT intensity (Bzz1-2, P38822) was 8. It also gave an SPOT intensity (Cdc25, P04821) of 0, an SPOT intensity (Cyk3, Q07533) of 0 and an SPOT intensity (Fus1, P11710) of 0. For the same binder, the SPOT intensity (GST) was 0, the SPOT intensity (Hof1, Q05080) was 425 and the SPOT intensity (Hse1, P38753) was 750. The SPOT intensity (Lsb1, P53281) was 1110, the SPOT intensity (Lsb3, P43603) was 892 and the SPOT intensity (Lsb4, P32793) was 743. It also gave an SPOT intensity (Myo3, P36006) of 129, an SPOT intensity (Myo5, Q04439) of 206 and an SPOT intensity (Nbp2, Q12163) of 0. For the same binder, the SPOT intensity (Pex13, P80667) was 470, the SPOT intensity (Pin3, Q06449) was 48 and the SPOT intensity (Rvs167, P39743) was 4620. For the same binder, the SPOT intensity (Sho1, P40073) was 58, the SPOT intensity (Sla1-2, P32790) was 0 and the SPOT intensity (Sla1-3, P32790) was 1.

In the case of LKRITSPPLPPRADS, the SPOT intensity (Abp1, P15891) is reported as 40, the SPOT intensity (Bbc1, P47068) is reported as 33 and the SPOT intensity (Bem1-1, P29366) is reported as 0. The SPOT intensity (Bem1-2, P29366) was 0, the SPOT intensity (Boi1, P38041) was 1 and the SPOT intensity (Boi2, P39969) was 0. It also gave an SPOT intensity (Bud14, P27637) of 3, an SPOT intensity (Bzz1-1, P38822) of 0 and an SPOT intensity (Bzz1-2, P38822) of 6. The SPOT intensity (Cdc25, P04821) was 0, the SPOT intensity (Cyk3, Q07533) was 0 and the SPOT intensity (Fus1, P11710) was 0. For the same binder, the SPOT intensity (GST) was 0, the SPOT intensity (Hof1, Q05080) was 520 and the SPOT intensity (Hse1, P38753) was 38. It also gave an SPOT intensity (Lsb1, P53281) of 892, an SPOT intensity (Lsb3, P43603) of 566 and an SPOT intensity (Lsb4, P32793) of 700. The SPOT intensity (Myo3, P36006) was 75, the SPOT intensity (Myo5, Q04439) was 4 and the SPOT intensity (Nbp2, Q12163) was 0. For the same binder, the SPOT intensity (Pex13, P80667) was 145, the SPOT intensity (Pin3, Q06449) was 11 and the SPOT intensity (Rvs167, P39743) was 4040. For the same binder, the SPOT intensity (Sho1, P40073) was 65, the SPOT intensity (Sla1-2, P32790) was 0 and the SPOT intensity (Sla1-3, P32790) was 0.

From publication PMC2756588
